Experiment [1] addresses T1, cyno-LAG3-hFc (cynomolgus monkey).
T1 construct: Bought product; also called cynomolgus monkey LAG-3
The experiment in a line: ELISA.

Experiment [2] deals with T2, human LAG-3-his (human, UniProt P18627 23-422).
T2 construct: range 23-422; also called hLAG-3-his; hLAG-3
T2 sequence: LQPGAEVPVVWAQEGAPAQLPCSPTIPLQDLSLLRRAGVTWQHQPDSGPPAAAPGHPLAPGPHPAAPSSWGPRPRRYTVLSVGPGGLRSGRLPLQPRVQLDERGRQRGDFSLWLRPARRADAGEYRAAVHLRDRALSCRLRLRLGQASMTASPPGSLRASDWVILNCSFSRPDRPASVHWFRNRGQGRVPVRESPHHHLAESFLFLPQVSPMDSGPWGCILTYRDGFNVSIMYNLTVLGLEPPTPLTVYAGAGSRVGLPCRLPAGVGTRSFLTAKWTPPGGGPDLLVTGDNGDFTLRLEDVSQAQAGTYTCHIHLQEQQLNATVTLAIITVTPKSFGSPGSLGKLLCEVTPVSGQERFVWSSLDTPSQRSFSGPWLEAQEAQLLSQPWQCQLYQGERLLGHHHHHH
In words: ELISA. Here is the method:
(§1) After discarding the liquid, a blocking solution of 5% skimmed milk (Bright skimmed milk powder) diluted with PBS was added at 230 μl per well, followed by incubating at 37° C. for 3 hours or 4° C. overnight (16-18 hours) for blocking. Subsequently, the blocking solution was discarded, and the micropiate was washed 5 times with PBST buffer (pH 7.4 PBS containing 0.05% tweeen-20). Then 50 μl/well of the supernatant (containing the antibody to be tested) or a starting concentration of 10 μg/ml of the antibody to be tested, which was diluted 5 times in gradient, was added, followed by incubating the mixture for 1 hour at 37° C. […] After washing the microplate 5 times with PBST, 50 μl/well TIMB chromogenic substrate (KPL, Cat. No.: 52-00-03) was added, and then incubated for […] at room temperature. Finally, 50 μl/well of 1 M H₂SO₄ was added to stop the reaction. The absorbance value at 450 nm was read by […] GO microplate reader (ThermoFisher, Cat. No.: 51119200). The clones with high affinity were selected according to the OD value or the EC₅₀ value was calculated (for antibodies with known concentrations).
On the technique in general: An ELISA detects its analyte on a solid surface through an enzyme-linked reagent.

The target in a further experiment is T3, human LAG-3-hFc (human, UniProt P18627 23-422).
T3 construct: range 23-422; also called hLAG-3-hFc
T3 sequence (looked up): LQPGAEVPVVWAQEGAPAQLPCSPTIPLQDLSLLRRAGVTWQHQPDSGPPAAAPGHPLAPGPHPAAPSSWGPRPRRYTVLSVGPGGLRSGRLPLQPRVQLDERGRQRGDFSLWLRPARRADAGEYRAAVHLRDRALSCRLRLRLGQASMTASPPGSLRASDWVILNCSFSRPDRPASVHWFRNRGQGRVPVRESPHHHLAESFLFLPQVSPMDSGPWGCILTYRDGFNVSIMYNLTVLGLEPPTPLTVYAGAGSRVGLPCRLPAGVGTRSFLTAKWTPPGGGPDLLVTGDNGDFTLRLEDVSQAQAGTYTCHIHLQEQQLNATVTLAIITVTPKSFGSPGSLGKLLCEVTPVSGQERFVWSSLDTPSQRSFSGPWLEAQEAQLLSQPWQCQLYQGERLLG
The experiment in a line: ELISA. As for the experimental part: as §1

The target of another experiment is T4, hLAG-3-D12-his (human, UniProt P18627 23-239).
T4 construct: range 23-239
T4 sequence: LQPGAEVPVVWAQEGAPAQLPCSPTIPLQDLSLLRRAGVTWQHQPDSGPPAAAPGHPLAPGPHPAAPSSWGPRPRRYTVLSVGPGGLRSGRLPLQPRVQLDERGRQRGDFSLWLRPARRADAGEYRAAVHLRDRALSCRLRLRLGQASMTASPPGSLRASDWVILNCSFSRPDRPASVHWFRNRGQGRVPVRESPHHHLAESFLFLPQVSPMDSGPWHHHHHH
In words: ELISA. As for the experimental part: as §1

A further experiment has as its target T5, hLAG-3-D12-hFc (human, UniProt P18627 23-239).
T5 construct: range 23-239
T5 sequence (looked up): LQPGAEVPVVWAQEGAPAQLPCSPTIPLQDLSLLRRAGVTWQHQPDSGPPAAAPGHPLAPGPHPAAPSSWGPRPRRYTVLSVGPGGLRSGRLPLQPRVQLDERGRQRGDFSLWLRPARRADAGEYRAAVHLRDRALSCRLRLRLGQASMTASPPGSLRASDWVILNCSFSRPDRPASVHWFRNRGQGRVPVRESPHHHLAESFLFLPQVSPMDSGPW
In words: ELISA. As for the experimental part:
as §1

Experiment [3] addresses T1, cyno-LAG3-hFc. The experiment in a line: ELISA. As for the experimental part: as §1
The source holds these as a separate data set.

Experiment [4] has as its target T6, murine LAG-3 his tagged (mLAG-3-his) (mouse, UniProt Q61790 23-406).
T6 construct: range 23-406; also called mouse LAG-3
T6 sequence: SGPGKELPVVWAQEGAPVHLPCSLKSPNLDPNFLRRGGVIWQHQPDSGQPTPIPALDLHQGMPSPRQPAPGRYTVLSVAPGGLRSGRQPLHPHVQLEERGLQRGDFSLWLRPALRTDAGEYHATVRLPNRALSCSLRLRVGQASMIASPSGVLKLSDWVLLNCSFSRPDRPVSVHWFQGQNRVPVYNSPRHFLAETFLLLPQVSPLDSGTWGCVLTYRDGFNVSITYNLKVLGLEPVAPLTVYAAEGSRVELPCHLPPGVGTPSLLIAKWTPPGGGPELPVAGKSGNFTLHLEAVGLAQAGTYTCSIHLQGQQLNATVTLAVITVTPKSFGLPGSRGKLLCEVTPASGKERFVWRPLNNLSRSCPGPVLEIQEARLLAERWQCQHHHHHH
In words: ELISA. As for the experimental part: as §1

Experiment [5] deals with T2, human LAG-3-his. The experiment in a line: ELISA on hLAG-3. As for the experimental part: as §1

B1: humanized anti-human LAG-3 antibody Ab2317 (antibody, human IgG4 S228P, kappa, V domains shown)
VH: QVQLVQSGAEVKKPGASVKVSCKASGYTFTDYEMHWVKQAPGQGLEWIGGIDPETEGIAYNQKFRGRATLTADKSTSTAYMELRSLRSDDTAVYYCTNSNYYGGREAWFAYWGQGTLVTVSS
VL: DIQMTQSPSSLSASVGDRVTITCRASQDIGSSLNWYQQKPGKAPKRLIYATSSLDSGVPSRFSGSRSGSDFTLTISSLQPEDFATYYCLQYVTSPLTFGGGTKVEIKR
notes: LG2317 / LG2343, human kappa / hIgG4
What is called EC50 is the concentration giving half of the maximal effect. Low values mean higher potency in that assay, high ones lower potency in that assay. For B1, the “fold weaker than binding to human LAG-3” value with cyno-LAG3-hFc [1] is greater than 200 times. Besides, the EC50 amounted to 0.16 nM with human LAG-3-his [2]; 0.25 nM with human LAG-3-hFc; 1.71 nM with hLAG-3-D12-his; 2.59 nM in the experiment with hLAG-3-D12-hFc; 40.2 nM in the experiment with cyno-LAG3-hFc [3]; 0.119 nM with human LAG-3-his [5]. In experiment [4], the binding result was “no binding”.

B2: humanized antibody Ab2325 (antibody, human IgG4 S228P, kappa, V domains shown)
VH: QVQLVQSGAEVKKPGASVKVSCKASGYTFTDYEMHWVKQAPGQGLEWMGGIDPETEGIAYNQKFRGRATMTTDTSTSTAYMELRSLRSDDTAVYYCANSNYYGGREAWFAYWGQGTLVTVSS
VL: DIQMTQSPSSLSASVGDRVTITCRASQDIGSSLNWYQQKPGKAPKRLIYATSSLDSGVPSRFSGSRSGSDFTLTISSLQPEDFATYYCLQYVTSPLTFGGGTKVEIKR
notes: LG2317 / LG2348, human kappa / hIgG4
Regarding B2, in the experiment with cyno-LAG3-hFc [1], the “fold weaker than binding to human LAG-3” value was greater than 200 times. In addition, the EC50 with human LAG-3-his [2] was 0.19 nM; with human LAG-3-hFc, 0.4 nM; with hLAG-3-D12-his, 1.51 nM; with hLAG-3-D12-hFc it was 2.01 nM; in the experiment with cyno-LAG3-hFc [3], 44.5 nM; with human LAG-3-his [5] it was 0.142 nM. Further, in experiment [4], the binding result is given as “no binding”.
